Measurements as given in patent US20050042747A1, “Hivgp120-induced bob/gpr15 activation” (priority 2001, published 2005).
“Also recorded” adds a separate entry of the source. Like-named read-outs stand apart in the source and are kept apart here.

Columns and labels:
Bob = target: T1, Bob (Homo sapiens, UniProt P49685); test: gp120-induced calcium flux, Ghost (3) cells transfected with Bob (Fluo-4); format: cell-based; parameters: key to minimal concentration of gp120 resulting in a significant calcium flux: — = no calcium flux seen at any dilution tested; settings: for minimal concentration of gp120 resulting in a significant calcium flux: Ghost (3) Bob cells
T1 construct: host or cells: Ghost (3) cells (human osteosarcoma, also transfected with CD4 and a GFP reporter)
T1 sequence (P49685 1-360): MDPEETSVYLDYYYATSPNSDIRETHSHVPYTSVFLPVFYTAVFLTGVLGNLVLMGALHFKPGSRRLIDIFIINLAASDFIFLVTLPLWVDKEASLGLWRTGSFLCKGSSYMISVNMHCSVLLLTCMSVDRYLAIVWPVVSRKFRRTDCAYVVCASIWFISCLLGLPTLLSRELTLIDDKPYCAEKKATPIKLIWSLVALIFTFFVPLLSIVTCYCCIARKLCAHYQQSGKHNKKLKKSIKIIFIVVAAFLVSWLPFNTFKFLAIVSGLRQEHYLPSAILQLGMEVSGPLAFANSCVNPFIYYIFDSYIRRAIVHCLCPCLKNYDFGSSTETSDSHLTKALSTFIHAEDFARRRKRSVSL
Experimental: (§1) Calcium studies were done on HT-29 cells and Ghost (3) cells loaded with Fluo 4. The cells were placed in Locke's buffer containing 5 μg/ml Fluo 4 AM ester (Molecular Probes) for 20 to 30 minutes, then in Locke's buffer for an additional 30 minutes before testing. Various concentrations of gp120IIIB (X4 trophic), gp120CM235 (R5 trophic), gp120mN (X4 trophic), gp12093TH975 (nonsyncytium-inducing primary isolate from an asymptomatic subject, trophism undetermined but likely R5), and gp120SF2 (X4R5 trophic), ranging from 10 nM to less than 1 pM, were added in Locke's buffer.^6 The gp120 proteins were obtained from the AIDS Research Reagent Referral Program. Some HT-29 cells were given one of the following pretreatments: 50 μg/ml anti-Bob37 overnight, 1 μg/ml pertussis toxin overnight, or 4.6 μg/ml U73122 for one hour. With the HT-29 cells only, similar tests were also performed with SDF-1, MIP-1α, MIP-1β, and RANTES rather than gp120. The cells were visualized every 4 seconds in a confocal microscope, using 488 nm argon laser excitation and detection filters appropriate for fluorescein-like dyes.
(§2) Human osteosarcoma cell lines were transfected to express CD4, one or another of the HIV coreceptors, and a Green Fluorescent Protein reporter for active HIV infection, for the purpose of testing which of the known coreceptors was used to induce HIV infection by a given HIV strain (Morner A. J Virol 73:2343-9, 1999 and Deng K Nature 388:296-300, 1997). These cells were obtained from the AIDS Research and Reference Reagent Program, courtesy of Dr. Vineet KewalRamani and Dr. Dan Littman. These cells were grown in DMEM with 10% bovine calf serum supplemented with 0.5 mg/ml G418, 0.1 mg/ml hygromycin, and 1 microgram/ml puromycin, and were used at low passage number (less than 10). We have discovered that these cell lines are also activated by gp120 of certain viral strains, inducing a calcium flux in these cells.
Within 4 days of plating, coreceptor-transfected Ghost (3) cells (as well as the parent cell line not transfected to express any HIV coreceptors as a control) were put in Locke's medium, then treated with Fluo-4 (5 micrograms/ml for 30 minutes at 37° C.). After an additional 30 minute incubation in Locke's buffer at room temperature, the cells were examined in a confocal microscope while gp120 of various viral strains was added, and the cells were examined at 4 second intervals to look for a gp120-induced calcium flux. The results are given in the following table, expressed as the minimal concentration of gp120 resulting in a significant calcium flux. “−” means that no reproducible calcium flux was observed. “ND” means that the gp120 of that viral strain was not tested with the stated coreceptor.
These cells were treated with serial dilutions (100 or 250 nM to at least 1 pM, or even less if calcium fluxes were noted) of gp120. Gp120s from each of four HIV-1 strains: IIIB, CM235, SF2, and […] were used. Listed is the greatest dilution which induced a significant, reproducible calcium flux. The parental line is known to express CXCR4 at very low levels. Those results indicated by an asterisk are thought to represent this artifact.

[1] = test system: Ghost (3) parental cell line; test: gp120-induced calcium flux, Ghost (3) parental cell line; format: cell-based, human; parameters: key: — = no calcium flux seen at any dilution tested
Experimental: as §1, §2
Within 4 days of plating, coreceptor-transfected Ghost (3) cells (as well as the parent cell line not transfected to express any HIV coreceptors as a control) were put in Locke's medium, then treated with Fluo-4 (5 micrograms/ml for 30 minutes at 37° C.). After an additional 30 minute incubation in Locke's buffer at room temperature, the cells were examined in a confocal microscope while gp120 of various viral strains was added, and the cells were examined at 4 second intervals to look for a gp120-induced calcium flux. The results are given in the following table, expressed as the minimal concentration of gp120 resulting in a significant calcium flux. “−” means that no reproducible calcium flux was observed. “ND” means that the gp120 of that viral strain was not tested with the stated coreceptor. […]

CCR1 = target: T2, CCR1 (Homo sapiens, UniProt P32246); test: gp120-induced calcium flux, Ghost (3) cells transfected with CCR1; format: cell-based; parameters: key: — = no calcium flux seen at any dilution tested; settings: Ghost (3) CCR1 cells
T2 construct: host or cells: Ghost (3) cells (human osteosarcoma, CD4+)
T2 sequence (P32246 1-355): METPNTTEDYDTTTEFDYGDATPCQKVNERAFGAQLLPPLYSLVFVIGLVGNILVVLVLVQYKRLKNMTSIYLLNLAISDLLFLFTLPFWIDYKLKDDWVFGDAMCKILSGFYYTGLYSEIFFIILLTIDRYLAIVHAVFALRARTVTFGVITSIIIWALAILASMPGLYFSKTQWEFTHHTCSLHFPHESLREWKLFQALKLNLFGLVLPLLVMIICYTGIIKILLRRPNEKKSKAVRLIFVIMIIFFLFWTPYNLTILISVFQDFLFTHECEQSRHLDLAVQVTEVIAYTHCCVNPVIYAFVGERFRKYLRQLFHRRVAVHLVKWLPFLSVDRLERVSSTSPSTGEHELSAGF
Description: as §2
(§3) Within 4 days of plating, coreceptor-transfected Ghost (3) cells (as well as the parent cell line not transfected to express any HIV coreceptors as a control) were put in Locke's medium, then treated with Fluo-4 (5 micrograms/ml for 30 minutes at 37° C.). […] The results are given in the following table, expressed as the minimal concentration of gp120 resulting in a significant calcium flux. […]

CCR3 = target: T3, CCR3 (Homo sapiens, UniProt P51677); test: gp120-induced calcium flux, Ghost (3) cells transfected with CCR3; format: cell-based; parameters: key: — = no calcium flux seen at any dilution tested; settings: Ghost (3) CCR3 cells
T3 construct: host or cells: Ghost (3) cells (human osteosarcoma, CD4+)
T3 sequence (P51677 1-355): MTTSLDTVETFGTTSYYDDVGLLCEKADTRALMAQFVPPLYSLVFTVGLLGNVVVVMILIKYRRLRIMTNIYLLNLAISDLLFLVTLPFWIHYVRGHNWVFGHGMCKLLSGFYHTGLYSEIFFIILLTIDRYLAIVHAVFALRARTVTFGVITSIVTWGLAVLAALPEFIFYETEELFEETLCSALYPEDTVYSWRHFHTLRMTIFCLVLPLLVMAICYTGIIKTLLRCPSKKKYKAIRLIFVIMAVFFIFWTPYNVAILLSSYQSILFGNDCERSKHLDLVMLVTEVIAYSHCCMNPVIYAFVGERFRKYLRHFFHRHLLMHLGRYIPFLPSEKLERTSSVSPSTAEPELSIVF
Description: as §2, §3

CCR8 = target: T4, CCR8 (Homo sapiens, UniProt P51685); test: gp120-induced calcium flux, Ghost (3) cells transfected with CCR8; format: cell-based; parameters: key: — = no calcium flux seen at any dilution tested; settings: Ghost (3) CCR8 cells
T4 construct: host or cells: Ghost (3) cells (human osteosarcoma, CD4+)
Description: as §2, §3

CXCR6/Bonzo = target: T5, CXCR6/Bonzo (Homo sapiens, UniProt O00574); test: gp120-induced calcium flux, Ghost (3) cells transfected with CXCR6/Bonzo; format: cell-based; parameters: key: — = no calcium flux seen at any dilution tested; settings: Ghost (3) CXCR6/Bonzo cells
T5 construct: host or cells: Ghost (3) cells (human osteosarcoma, CD4+)
Description: as §2, §3

Substance | Bob activation / calcium signals in Bob-transfected Ghost (3) cells, in words (Bob) | minimal concentration of gp120 resulting in a significant calcium flux (Bob; serial dilutions) | minimal concentration of gp120 resulting in a significant calcium flux ([1]; Ghost (3) parental line (expresses CXCR4 at very low levels)) | minimal concentration of gp120 resulting in a significant calcium flux ([1]; Ghost (3) parental line (expresses CXCR4 at very low levels), listed as IIIB) | minimal concentration of gp120 resulting in a significant calcium flux (CCR1) | minimal concentration of gp120 resulting in a significant calcium flux (CCR3) | minimal concentration of gp120 resulting in a significant calcium flux (CCR8) | minimal concentration of gp120 resulting in a significant calcium flux (CXCR6/Bonzo) | minimal concentration of gp120 resulting in a significant calcium flux (Bob; 100 or 250 nM to at least 1 pM) | Bob activation / calcium signals in Bob-transfected Ghost (3) cells, in words (Bob; listed as SF2) | minimal concentration of gp120 resulting in a significant calcium flux ([1]; Ghost (3) parental line)
gp120IIIB: HIV-1 envelope surface protein gp120 of strain IIIB (X4 trophic), from the AIDS Research Reagent Referral Program | extremely potent activator | 15 fM | about 1 nM | 250 nM | — | — | — | — |  |  | 
gp120SF2: gp120 of HIV strain SF2 (X4R5 trophic) |  |  |  |  | — | — | — | — | — | do not activate Bob; also recorded: did not cause calcium signals | —
